Results as given in the supplement of paper PMC9112550, “Optimization of the antimicrobial peptide Bac7 by deep mutational scanning” (BMC Biology, 2022).

System: Escherichia coli TOP10
Experiment: shrunken log2 fold change of peptide-encoding DNA abundance (4.5 h post-induction vs induction); higher = less antimicrobial activity (less host growth inhibition)
Conditions: time post-induction: 4.5 h; library: site-saturation at positions 5, 18, 19, 20
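Also: peptides expressed intracellularly from a pBAD plasmid library in pooled LB shake-flask culture, induced with 0.3% L-arabinose, DNA abundance read by NGS, three biological replicates, DESeq2 with apeglm shrinkage.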

Row | Sequence | shrunken log2 fold change
1 | RRIRKRPPRLPRPRPRPEEAPRP | 3.85
2 | RRIRARPPRLPRPRPRPKTKPRP | 0.0731
3 | RRIRFRPPRLPRPRPRPKQVPRP | -0.176
4 | RRIRVRPPRLPRPRPRPLKKPRP | 0.181
5 | RRIRSRPPRLPRPRPRPAKKPRP | 0.0292
6 | RRIRHRPPRLPRPRPRPKWDPRP | -0.00576
7 | RRIRRRPPRLPRPRPRPALGPRP | 0.269
8 | RRIRRRPPRLPRPRPRPDMTPRP | 0.0544
9 | RRIRKRPPRLPRPRPRPIYPPRP | -0.0542
10 | RRIRERPPRLPRPRPRPTMNPRP | -0.19
11 | RRIRTRPPRLPRPRPRPRWVPRP | 0.216
12 | RRIRHRPPRLPRPRPRPTEYPRP | -0.301
13 | RRIRRRPPRLPRPRPRPSFEPRP | 0.234
14 | RRIRSRPPRLPRPRPRPNYEPRP | -0.609
15 | RRIRMRPPRLPRPRPRPPHWPRP | 0.898
16 | RRIRRRPPRLPRPRPRPVLNPRP | 0.0825
17 | RRIRCRPPRLPRPRPRPDECPRP | -0.00243
18 | RRIRVRPPRLPRPRPRPPMFPRP | -0.161
19 | RRIRHRPPRLPRPRPRPLVNPRP | -0.117
20 | RRIRCRPPRLPRPRPRPHLNPRP | -0.627
21 | RRIRFRPPRLPRPRPRPKYNPRP | -0.978
22 | RRIRGRPPRLPRPRPRPISHPRP | -0.0449
23 | RRIRCRPPRLPRPRPRPTKCPRP | -0.0551
24 | RRIRTRPPRLPRPRPRPMVPPRP | -0.0651
25 | RRIRRRPPRLPRPRPRPWLRPRP | -0.103

Row | Sequence | shrunken log2 fold change
26 | RRIRARPPRLPRPRPRPEGEPRP | 1.39
27 | RRIRRRPPRLPRPRPRPELDPRP | 0.122
28 | RRIRARPPRLPRPRPRPFTRPRP | 0.105
29 | RRIRVRPPRLPRPRPRPVDRPRP | 0.257
30 | RRIRIRPPRLPRPRPRPPARPRP | 0.393
31 | RRIRMRPPRLPRPRPRPCNLPRP | -0.369
32 | RRIRPRPPRLPRPRPRPGKQPRP | -0.0793
33 | RRIRWRPPRLPRPRPRPYRFPRP | -0.0166
34 | RRIRQRPPRLPRPRPRPSNKPRP | -0.513
35 | RRIRLRPPRLPRPRPRPVMEPRP | 0.233
36 | RRIRRRPPRLPRPRPRPAIHPRP | 0.131
37 | RRIRRRPPRLPRPRPRPFDYPRP | -0.0528
38 | RRIRTRPPRLPRPRPRPNVWPRP | 0.0477
39 | RRIRLRPPRLPRPRPRPDKIPRP | -0.494
40 | RRIRIRPPRLPRPRPRPTLHPRP | -0.377
41 | RRIRERPPRLPRPRPRPRMYPRP | -0.723
42 | RRIRWRPPRLPRPRPRPTERPRP | -0.124
43 | RRIRKRPPRLPRPRPRPSGIPRP | 0.149
44 | RRIRFRPPRLPRPRPRPKDEPRP | -0.13
45 | RRIRVRPPRLPRPRPRPEDAPRP | 0.801
46 | RRIRRRPPRLPRPRPRPWVPPRP | -0.0825
47 | RRIRNRPPRLPRPRPRPADKPRP | 0.0545
48 | RRIRKRPPRLPRPRPRPFHFPRP | -0.0346
49 | RRIRWRPPRLPRPRPRPDANPRP | 0.0696
50 | RRIRCRPPRLPRPRPRPSQVPRP | -0.156

Row | Sequence | shrunken log2 fold change
51 | RRIRIRPPRLPRPRPRPYAKPRP | -0.207
52 | RRIRVRPPRLPRPRPRPRIQPRP | -0.196
53 | RRIRVRPPRLPRPRPRPMIIPRP | -1.25
54 | RRIRHRPPRLPRPRPRPELLPRP | 0.06
55 | RRIRYRPPRLPRPRPRPFDWPRP | -0.122
56 | RRIRRRPPRLPRPRPRPMPEPRP | 0.124
57 | RRIRDRPPRLPRPRPRPHYGPRP | -0.192
58 | RRIRLRPPRLPRPRPRPQLRPRP | -0.00627
59 | RRIRSRPPRLPRPRPRPHTCPRP | -0.215
60 | RRIRYRPPRLPRPRPRPCFFPRP | -0.619
61 | RRIRVRPPRLPRPRPRPNLKPRP | -0.0252
62 | RRIRLRPPRLPRPRPRPAKGPRP | -0.00764
63 | RRIRCRPPRLPRPRPRPNPCPRP | -0.209
64 | RRIRVRPPRLPRPRPRPPLEPRP | 0.431
65 | RRIRQRPPRLPRPRPRPDQEPRP | 0.0119
66 | RRIRWRPPRLPRPRPRPCDYPRP | -0.0182
67 | RRIRSRPPRLPRPRPRPASMPRP | 0.0141
68 | RRIRHRPPRLPRPRPRPWNIPRP | -0.246
69 | RRIRIRPPRLPRPRPRPTDAPRP | -0.0317
70 | RRIRCRPPRLPRPRPRPSQFPRP | -0.787
71 | RRIRSRPPRLPRPRPRPIVEPRP | 1.56
72 | RRIRHRPPRLPRPRPRPIMRPRP | -0.0864
73 | RRIRKRPPRLPRPRPRPQNCPRP | -0.132
74 | RRIRYRPPRLPRPRPRPLFAPRP | -0.492
75 | RRIRGRPPRLPRPRPRPNDSPRP | -0.0552

Row | Sequence | shrunken log2 fold change
76 | RRIRQRPPRLPRPRPRPVIEPRP | 0.162
77 | RRIRGRPPRLPRPRPRPGQHPRP | 0.0185
78 | RRIRFRPPRLPRPRPRPGLWPRP | 0.526
79 | RRIRLRPPRLPRPRPRPGLPPRP | 0.576
80 | RRIRNRPPRLPRPRPRPFVNPRP | -0.0775
81 | RRIRVRPPRLPRPRPRPAGAPRP | 0.417
82 | RRIRSRPPRLPRPRPRPQHNPRP | -0.628
83 | RRIRGRPPRLPRPRPRPLTIPRP | -0.155
84 | RRIRLRPPRLPRPRPRPCEIPRP | 0.0237
85 | RRIRSRPPRLPRPRPRPLIRPRP | -0.196
86 | RRIRWRPPRLPRPRPRPQRCPRP | 0.103
87 | RRIRFRPPRLPRPRPRPAFWPRP | 0.516
88 | RRIRGRPPRLPRPRPRPTSKPRP | 0.69
89 | RRIRCRPPRLPRPRPRPPAMPRP | 0.241
90 | RRIRGRPPRLPRPRPRPQFFPRP | -0.0486
91 | RRIRVRPPRLPRPRPRPQNGPRP | -0.356
92 | RRIRYRPPRLPRPRPRPEMWPRP | 0.0929
93 | RRIRNRPPRLPRPRPRPYSSPRP | -0.027
94 | RRIRLRPPRLPRPRPRPDPTPRP | 0.0311
95 | RRIRIRPPRLPRPRPRPGCIPRP | -0.523
96 | RRIRYRPPRLPRPRPRPCIIPRP | -1.51
97 | RRIRYRPPRLPRPRPRPWMDPRP | -0.159
98 | RRIRVRPPRLPRPRPRPVRIPRP | 0.337
99 | RRIRPRPPRLPRPRPRPTHAPRP | 0.131
100 | RRIRRRPPRLPRPRPRPYLGPRP | -0.276

Row | Sequence | shrunken log2 fold change
101 | RRIRYRPPRLPRPRPRPYSTPRP | -0.648
102 | RRIRSRPPRLPRPRPRPMFSPRP | -0.49
103 | RRIRERPPRLPRPRPRPGSQPRP | -0.196
104 | RRIRSRPPRLPRPRPRPFSKPRP | -0.0877
105 | RRIRYRPPRLPRPRPRPLVSPRP | -0.113
106 | RRIRQRPPRLPRPRPRPDTMPRP | 0.0515
107 | RRIRCRPPRLPRPRPRPFGQPRP | -0.442
108 | RRIRVRPPRLPRPRPRPLDQPRP | 0.0826
109 | RRIRFRPPRLPRPRPRPCPMPRP | -0.00789
110 | RRIRFRPPRLPRPRPRPNFRPRP | 0.157
111 | RRIRLRPPRLPRPRPRPNVPPRP | -0.213
112 | RRIRFRPPRLPRPRPRPALIPRP | -0.00983
113 | RRIRVRPPRLPRPRPRPCLVPRP | -0.115
114 | RRIRSRPPRLPRPRPRPFAVPRP | -0.113
115 | RRIRPRPPRLPRPRPRPKIQPRP | 0.0394
116 | RRIRHRPPRLPRPRPRPLDYPRP | -0.0824
117 | RRIRWRPPRLPRPRPRPCGNPRP | 0.0696
118 | RRIRLRPPRLPRPRPRPYPAPRP | -0.368
119 | RRIRCRPPRLPRPRPRPEHWPRP | 0.118
120 | RRIRDRPPRLPRPRPRPAHEPRP | -0.0156
121 | RRIRQRPPRLPRPRPRPKIVPRP | -0.113
122 | RRIRIRPPRLPRPRPRPEFTPRP | -0.1
123 | RRIRGRPPRLPRPRPRPVRDPRP | 0.401
124 | RRIRRRPPRLPRPRPRPPCEPRP | 0.195
125 | RRIRLRPPRLPRPRPRPMTKPRP | 0.0751
